Experimental data taken from PMC8658920.

Target: heterochromatin protein HP1γ (UniProt Q13185)
Test: proximity labelling; PUB (proximity utilizing biotinylation): BAP-HP1γ co-expressed with BirA-HP1γ or, in a separate dish, with BirA-Tap54α; 4 h biotinylation time; MRM LC-MS/MS on Agilent nanoHPLC-Chip ion trap, Skyline; ratio of biotinylation level, experiment versus control

Sequence of heterochromatin protein HP1γ, Q13185 1-183 (natural protein; other documents disagree on this pair) (Q13185 whole entry): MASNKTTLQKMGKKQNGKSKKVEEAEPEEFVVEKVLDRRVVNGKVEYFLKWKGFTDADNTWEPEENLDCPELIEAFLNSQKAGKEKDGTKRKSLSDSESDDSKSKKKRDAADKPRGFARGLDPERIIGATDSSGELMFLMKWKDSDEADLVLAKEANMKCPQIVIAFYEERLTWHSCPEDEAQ

heterochromatin protein HP1γ, Q13185 1-183 (natural protein; other documents disagree on this pair)
ratio of biotinylation level, experiment versus control BAP-HP1γ + BirA-Tap54α (4 h biotinylation time): 32
